Laboratory results taken from patent US12545899B2, “Luciferase enzymes for use with thermostable luciferins in bioluminescent assays” (Promega Corporation, priority 2018, dated 2026).
Changes are numbered by the printed parent chain. Names and notes keep the numbering of the source.

Tests used:
[1] = Differential scanning fluorimetry (DSF) analysis; assay type: physicochemical; conditions: Table 12
Method in brief: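 Thermal melt with 5× final Sypro Orange: ramp 1° C/min from 30 to 95° C, reading each 60 s, derivative of fluorescence plotted by temperature. Luciferase variants were in 20 mM HEPES pH 7.5, 200 mM NaCl, 1 mM EDTA; other enzymes in 50 mM HEPES pH 7.5, 100 mM NaCl, 2 mM EDTA.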

[2] = Kinetic analysis of thermostable variants with 400 fM-4 mM CS0280 (Table 12); assay type: biochemical; conditions: 4 mM ATP
Experimental: Table 12 includes representative results of kinetic analysis of the thermostable variants with 400 fM-4 mM CS0280. This panel of enzyme variants have a combination of improved thermostability and brightness with CS0280 relative to their progenitor enzyme variants MK134 and MK137.

[3] = Kinetic analysis of thermostable variants with CS0333 (Tables 13, 14); assay type: biochemical; conditions: 2 mM ATP
Description: (§1) Tables 13 and 14 include representative results of kinetic analysis of the thermostable variants with D/L luciferin, CS0333, and CS0280. The panel of enzyme variants highlight amino acid substitutions that further improve upon MK0137 in maximum luminescence (Vmax) or Km in different buffers with the different substrates tested (D/L-luciferin, CS0333, and CS0280). In particular, enzyme variants MK0151 and MK153 show improvements relative to MK0137 across multiple buffers with multiple substrates.

[4] = Kinetic analysis of thermostable variants with D/L-luciferin (Tables 13, 14); assay type: biochemical; conditions: 2 mM ATP
Description: as §1

[5] = Kinetic analysis of thermostable variants with CS0280 (Tables 13, 14); assay type: biochemical; conditions: 2 mM ATP
Description: as §1

B1: MK0141: SEQ ID NO: 108; H244W+S193A+N228D+L305F+S306P+I109V+C38R+F55I+Y108F+A316W+Y339M+T342S+V348I+T284A (protein)
chain: MADKNILYGPEPFYPLEDGTAGEQMFDALSRYAAIPGRIALTNAHTKENVLYEEILKLSCRLAESFKKYGLKQNDTIAVCSENSLQFFLPVIASLYLGIIVAPVNDKFVERELIHSLGIVKPRIVFCSKNTFQKVLNVKSKLKSIETIIILDLNEDLGGYQCLNNFISQNSDSNLDVKKFKPYSFNRDDQVAAIMFSSGTTGLPKGVMLTHKNIVARFSIAKDPTFGDAINPTSAILTVIPFHWGFGMMTTLGYFTCGFRVVLMHTFEEKLFLQSLQDYKVESALLVPTLMAFLAKSALVEKYDFPHLKEIASGGWPLSKEIGEMVKKRFKLNFVRQGMGLSETTSAILITPKGDAKPGSTGKIVPLHAVKVVDPTTGKILGPNEPGELYFKGPMIMKGYYNNEEATKAIIDNDGWLRSGDIAYYDNDGHFYIVDRLKSLIKYKGYQVAPAEIEGILLQHPYIVDAGVTGIPDEAAGELPAAGVVVQTGKYLNEQIVQDYVASQVSTAKWLRGGVKFLDEIPKGSTGKIDRKVLRQMLEKHTNGHHHHHHHH
Q: What does the source list for B1?
A: DSF Tm (° C.) [1]: 73 °C; Km ([2]; BrightGlo Buffer): 7.12 µM; Vmax (RLU) ([2]; BrightGlo Buffer): 1,701,019 RLU; Km ([2]; Detection Reagent Buffer): 40.6 µM; Vmax (RLU) ([2]; Detection Reagent Buffer): 89,238 RLU

B2: MK0142: SEQ ID NO: 109; H244W+S193A+N228D+L305F+S306P+I109V+C38R+F55I+Y108F+A316W+Y339M+T342S+V348I+T289R (protein)
chain: B1 chain with A284T, T289R
Q: With B2 as the molecule, how does the “DSF Tm (° C.)” value [1] read?
A: 71 °C

Q: What about the Km ([2]; BrightGlo Buffer) of the same molecule?
A: 4.98 µM

Q: And the “Vmax (RLU)” value ([2]; BrightGlo Buffer)?
A: 1,409,786 RLU

Q: And the Km ([2]; Detection Reagent Buffer)?
A: 32.3 µM

Q: What about the “Vmax (RLU)” value ([2]; Detection Reagent Buffer) of the same molecule?
A: 70,257 RLU

B3: MK0147: SEQ ID NO: 113; H244W+S193A+N228D+L305F+S306P+I109V+C38R+F55I+Y108F+A316W+Y339M+T342S+V348I+W510R (protein)
chain: B1 chain with A284T, W510R
Q: Which “DSF Tm (° C.)” value [1] does the source give for B3 here?
A: 71 °C

Q: And the Km ([2]; BrightGlo Buffer)?
A: 7.12 µM

Q: What about the “Vmax (RLU)” value ([2]; BrightGlo Buffer) of the same molecule?
A: 1,101,042 RLU

Q: What about the Km ([2]; Detection Reagent Buffer) of the same molecule?
A: 26.1 µM

Q: And the “Vmax (RLU)” value ([2]; Detection Reagent Buffer)?
A: 62,099 RLU

B4: MK0145: SEQ ID NO: 111; H244W+S193A+N228D+L305F+S306P+I109V+C38R+F55I+Y108F+A316W+Y339M+T342S+V348I+D435G (protein)
chain: B1 chain with A284T, D435G
Q: For B4, which Km ([3]; BrightGlo Buffer) is on record?
A: 6.83 µM

Q: What about the “Vmax (RLU)” value ([3]; BrightGlo Buffer) of the same molecule?
A: 2,891,897 RLU

Q: What about the Km ([3]; Detection Reagent Buffer) of the same molecule?
A: 21.5 µM

Q: What about the “Vmax (RLU)” value ([3]; Detection Reagent Buffer) of the same molecule?
A: 591,292 RLU

Q: What about the Km ([4]; BrightGlo Buffer) of the same molecule?
A: 0.136 µM

Q: What about the “Vmax (RLU)” value ([4]; BrightGlo Buffer) of the same molecule?
A: 334,536 RLU

Q: And the Km ([4]; Detection Reagent Buffer)?
A: 0.227 µM

Q: What about the “Vmax (RLU)” value ([4]; Detection Reagent Buffer) of the same molecule?
A: 41,310 RLU

Q: What about the Km ([5]; BrightGlo Buffer) of the same molecule?
A: 5.72 µM

Q: What about the “Vmax (RLU)” value ([5]; BrightGlo Buffer) of the same molecule?
A: 368,599 RLU

Q: What about the Km ([5]; Detection Reagent Buffer) of the same molecule?
A: 391 µM

Q: What about the “Vmax (RLU)” value ([5]; Detection Reagent Buffer) of the same molecule?
A: 38,794 RLU

Q: What about the “DSF Tm (° C.)” value [1] of the same molecule?
A: 72 °C

Q: What about the Km ([2]; BrightGlo Buffer) of the same molecule?
A: 11.9 µM

Q: And the “Vmax (RLU)” value ([2]; BrightGlo Buffer)?
A: 1,193,838 RLU

Q: And the Km ([2]; Detection Reagent Buffer)?
A: 50.6 µM

Q: What about the “Vmax (RLU)” value ([2]; Detection Reagent Buffer) of the same molecule?
A: 66,768 RLU

B5: MK0139: SEQ ID NO: 107; H244W+S193A+N228D+L305F+S306P+I109V+C38R+F55I+Y108F+A316W+Y339M+T342S+V348I+I240V (protein)
chain: B1 chain with I240V, A284T
Q: Which results are given for B5?
A: DSF Tm (° C.) [1]: 72 °C; Km ([2]; BrightGlo Buffer): 15.7 µM; Vmax (RLU) ([2]; BrightGlo Buffer): 764,421 RLU; Km ([2]; Detection Reagent Buffer): 128 µM; Vmax (RLU) ([2]; Detection Reagent Buffer): 35,633 RLU
